Measured values published in the RNAGym collection of RNA variant scans (doi:10.7554/elife.90254).

B1: LINE1-full (parent)
chain: UACGUAGGUGGUUUUCCCCUGAUAGUGCUAAGGGGGCCUGGAAGUUUGGACUGGGCAGAGCUCAACACAGCGUGGCAAAGUGGCUGUGGCUAGACUGCCUCUCUGGAUUCCUCGUCACUCAGCAGGGCAUCUCUGAGAGAAAUGCC

Variants of: B1
Assay: self-cleavage, relative activity (ratio to wild type); higher = more cleavage; in vitro, sequencing; the parent is a self-cleaving ribozyme

| Variant | self-cleavage |
| --- | --- |
| U100C U132C | 1.67 |
| U104A G106A | 0.84 |
| U104A A141C | 0.47 |
| U104A A141G | 1.43 |
| U100C U104C | 2.14 |
| U100C U104A | 1.37 |
| C101U G126A | 1.54 |
| C101U A121G | 1.72 |
| U104A U132C | 1.08 |
| U104A U132A | 1.64 |
| U100C G126U | 1.37 |
| U104A A117G | 1.67 |
| U102C U109C | 1.38 |
| U102C A121G | 1.06 |
| U104C A136U | 1.91 |
| C103U A142C | 1.23 |
| C103A U143C | 1.1 |
| U104A C116U | 0.9 |
| C101U A141G | 2 |
| C101U U134C | 1.45 |
| U100C G139U | 2.03 |
| U100G | 1.24 |
| U100G C113U | 1.49 |
| U104C A141C | 1.73 |

| Variant | self-cleavage |
| --- | --- |
| U104C A141G | 1.69 |
| C101A A141G | 1.64 |
| U102A A136G | 1.78 |
| C101A C113A | 1.41 |
| U102C A136U | 1.8 |
| U102C A136C | 0.97 |
| U104A A121U | 1.11 |
| U104A C123U | 1.51 |
| U102A C145U | 1.04 |
| C101U A138G | 1.69 |
| C101U U119C | 1.65 |
| U102A U119C | 2.01 |
| U102C C145U | 1.93 |
| U102A C146U | 0.99 |
| U102G G144U | 0.97 |
| U104A U108A | 1 |
| U104C G122A | 1.54 |
| U102A U130C | 1.89 |
| U102A U130A | 1.28 |
| U102C A117C | 2.63 |
| U100G C116U | 1.61 |
| U102C U143A | 1.36 |
| U104A U109A | 0.42 |
| U104A U109C | 1.11 |

| Variant | self-cleavage |
| --- | --- |
| U102C G127A | 1.7 |
| U100C G125C | 1.89 |
| U102C G122A | 1.66 |
| U102C U134C | 1.55 |
| U102C U134A | 1.59 |
| U104C C116U | 1.91 |
| U102C U108A | 1.57 |
| U102C U108C | 1.15 |
| C103U U130C | 0.84 |
| U100G G114A | 1.77 |
| U102A A141G | 1.42 |
| U104C A140G | 1.67 |
| U104C A140U | 1.25 |
| U104A A129C | 1.61 |
| C101A A124G | 0.98 |
| C101U U115C | 1.49 |
| U104C C146U | 2.3 |
| U102C A124C | 2.04 |
| U102C A124U | 1.14 |
| U102G | 0.71 |
| U102C | 1.29 |
| U102A | 1.21 |
| U102C U130A | 2.21 |
| U102C A142U | 1.26 |

| Variant | self-cleavage |
| --- | --- |
| U102C A142G | 1.53 |
| U102C A142C | 1.73 |
| U102A C116U | 0.97 |
| U104C A117G | 1.23 |
| U100C G135A | 1.74 |
| U100C U143C | 1.97 |
| U102A G135A | 1.47 |
| C103U G114C | 1.5 |
| C103A A142G | 1.41 |
| U102A C120U | 1.65 |
| U100C U130C | 2.16 |
| U104A A136G | 1.39 |
| C103U A140U | 1.72 |
| U104C C133U | 1.72 |
| C101U A136G | 1.8 |
| U102C U115A | 1.51 |
| U102C U115C | 2.02 |
| U102C U132C | 1.75 |
| U100C G105U | 2.13 |
| C103U A121G | 1.58 |
| U104C C113U | 1.8 |
| U104C C113A | 2.01 |
| U102C U104A | 1.52 |
| U102A A107G | 1.06 |

| Variant | self-cleavage |
| --- | --- |
| U102A A107U | 1.66 |
| U104C A142G | 1.81 |
| C103U U115C | 1.51 |
| C103U U115A | 1.72 |
| U104A U143C | 1.13 |
| U102A A124C | 1.98 |
| U102A A124U | 1.46 |
| U102A A121G | 1.64 |
| U104A C131U | 1.55 |
| U102C C131U | 0.87 |
| U104C G114A | 1.59 |
| C101A A107G | 1.57 |
| U102C A138U | 1.49 |
| U104A U130A | 0.89 |
| U100C U108C | 2.05 |
| C103U | 1.23 |
| C103G | 1.25 |
| C103A | 1.38 |
| C101A A142G | 1.53 |
| U102C A141G | 1.39 |
| U102A U115A | 1.43 |
| U102A A138G | 1.62 |
| U104A U115A | 1.13 |
| U104A U115C | 1.42 |

| Variant | self-cleavage |
| --- | --- |
| U104C A129C | 2.1 |
| C101A A129G | 0 |
| C101A A129U | 2.2 |
| U102A C131U | 1.26 |
| U102G U143A | 0.84 |
| U102A U112C | 0.96 |
| C101U U102C | 1.49 |
| U104A A140U | 1.03 |
| U104A C118U | 0.84 |
| U104C G126U | 1.59 |
| U100C U102C | 1.65 |
| U100C U115C | 2.98 |
| U100C U115A | 1.87 |
| U102C C123U | 1.21 |
| U104C C120U | 1.45 |
| U100C U112C | 1.89 |
| U104A C120U | 1.65 |
| C101A U132C | 1.39 |
| U104C G105U | 1.66 |
| U102C G105A | 2.14 |
| U104A A138G | 1.34 |
| U100C G122C | 2.12 |
| U100C G122U | 1.76 |
| U102G A140G | 0.39 |

| Variant | self-cleavage |
| --- | --- |
| U102A U109C | 1.31 |
| U102A U109A | 1.03 |
| U100C U119C | 1.87 |
| U104A C113U | 0.51 |
| U104A C113A | 0.91 |
| U102C C133U | 0.47 |
| C103A A117G | 1.49 |
| C101U | 1.39 |
| C101G | 1.78 |
| C101A | 1.38 |
| U104A A107U | 1.31 |
| U102C G126A | 1.65 |
| U102C G126U | 1.59 |
| U100C G127C | 2.48 |
| U104A U119A | 1.23 |
| C103U U134C | 1.48 |
| U102A C113A | 0.97 |
| U102C A129G | 1.51 |
| U102A A140U | 1.42 |
| U102A A140G | 1.62 |
| U102A A142U | 1.5 |
| U104C G125A | 1.28 |
| U104C A124U | 1.76 |
